Measurements reported in the supplement of paper PMC9170038.

Test system: MS2 coat protein
Assay: apparent KD of MS2 coat protein; designed switch direction (-1 OFF switch, 1 ON switch): -1; higher = weaker reporter binding
Outline: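 Designed RNA switches with common flanks were transcribed on Illumina chips by stalled E. coli RNA polymerase and titrated with SNAP-549-labelled MS2 coat protein, from 0.7 or 1.5 nM doubling to 3 µM, in Tris-HCl pH 7.5 buffer with KCl, MgCl2, BSA, DTT, tRNA and Tween-20. Steps lasted 0.8–1.5 h (lowest) to 10–20 min (highest). Titrations ran without input, with 200 uM small-molecule ligand, or with an oligonucleotide input. Normalised cluster fluorescence was curve-fitted, and apparent KD is the per-design median over clusters.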

[1] = input ligand: microRNA oligo, concentration not stated
[2] = Eterna round: R95, input ligand: FMN 200 uM
[3] = Eterna round: R95, input ligand: microRNA oligo, concentration not stated
[4] = Eterna round: R95, input ligand: none

Sequence | apparent KD of MS2 coat protein (input ligand: FMN 200 uM) | apparent KD of MS2 coat protein (input ligand: none) | apparent KD of MS2 coat protein [1] | apparent KD of MS2 coat protein [3] | other results
UUUGGGUCAGGAUAUUGUUAGUUUAGUUGUUUGUAUUAGUUCGAGAAGGGACAUGAGGAUCACCCAUGUGGUUU [Ex4 #78] (Eterna round: R97, puzzle: Exclusion 4) | 0.0814 µM | 0.0853 µM | – | – | –
UUUGUAUAUGAAGGAUAUACUUAACAUGAGGAUCACCCAUGUGGUGUUGUGAGUGAGUGAGUUUAGUAGAAGGUCAAGUAUUUU [JMF's solution 50] (Eterna round: R96, puzzle: Exclusion NG 2) | 0.403 µM | 0.367 µM | 0.298 µM | – | –
UUUGUCAGCGUCGAAGUUUACAUGAGGAUCACCCAUGUGAUCAACACAGGCAUAUAAUUAGUAAUGAGUUCGUCUUC [Eternabot (L2) Solution 40] (Eterna round: R97, puzzle: Sensor, turn-off variant 1) | 0.0249 µM | 0.0302 µM | – | – | –
UUUGUUUUGGUAGGAUAUACUUUUAAUUUCUCUUUCCUUACAUGAGGAUCACCCAUGUUUACAUUGUAGAAGGACCACUUUGUU [JR_ExcNG2_Sub050] (Eterna round: R96, puzzle: Exclusion NG 2) | – | – | 0.0159 µM | – | –
UUUUAACAUGAGGAUCACCCAUGUCAGGAUAUGCUAUUUUUUUUUUUUUUUUUUUUUUGCAGAAGGGACAUUUU [My solution] (puzzle: Exclusion 1) | – | – | – | 0.0294 µM | apparent KD of MS2 coat protein [2]: 0.0785 µM; apparent KD of MS2 coat protein [4]: 0.0557 µM
UUUUAACAUGAGGAUCACCCAUGUGAGGAUAUCGAAAUUUAUAUUAAUAUUUAUUUAUCGAGAAGGCACAUUUU [JMF 64] (puzzle: Exclusion 1) | – | – | – | 0.12 µM | –
UUUUAACAUGAGGAUCACCCAUGUGAGGAUAUCGAAAUUUAUAUUAAUAUUUUUAUUACGAGAAGGCACAUUUU [JMF 74] (puzzle: Exclusion 1) | – | – | – | 0.0705 µM | –
UUUUAACAUGAGGAUCACCCAUGUGAGGAUAUCGAAAUUUAUAUUUAUAUUAAUUUUACGAGAAGGCACAUUUU [JMF 90] (puzzle: Exclusion 1) | – | – | – | 0.12 µM | –
UUUUAACAUGAGGAUCACCCAUGUGAGGAUAUCGAAAUUUAUAUUUAUAUUAAUUUUUCGAGAAGGCACAUUUU [JMF 89] (puzzle: Exclusion 1) | – | – | – | 0.177 µM | –
UUUUAACAUGAGGAUCACCCAUGUGAGGAUAUCGAAAUUUAUAUUUAUAUUUAUAAUUCGAGAAGGCACAUUUU [JMF 93] (puzzle: Exclusion 1) | – | – | – | 0.181 µM | –
UUUUAACAUGAGGAUCACCCAUGUGAGGAUAUCGAAAUUUAUAUUUAUAUUUAUAUAACGAGAAGGCACAUUUU [JMF 95] (puzzle: Exclusion 1) | – | – | – | 0.0683 µM | –
UUUUAACAUGAGGAUCACCCAUGUGAGGAUAUCGAAAUUUAUAUUUAUAUUUAUUAAUCGAGAAGGCACAUUUU [JMF 100] (puzzle: Exclusion 1) | – | – | – | 0.121 µM | –
UUUUAACAUGAGGAUCACCCAUGUGAGGAUAUCGUAUUUUUUAUUAAUAUUAAUAAAACGAGAAGGCACAUUUU [JMF 17] (Eterna round: R96, puzzle: Exclusion 1) | 0.0969 µM | 0.0655 µM | 0.0514 µM | – | –
UUUUAACAUGAGGAUCACCCAUGUGAGGAUAUCGUAUUUUUUAUUAAUAUUAAUAAAACGAGAAGGCACAUUUU [JMF 17] (puzzle: Exclusion 1) | – | – | – | 0.0861 µM | –
UUUUAACAUGAGGAUCACCCAUGUGAGGAUAUGCUAUUUUUUUUUUUUUUUUUUUUUUGCAGAAGGCACAUUUU [My solution] (puzzle: Exclusion 1) | – | – | – | 0.526 µM | apparent KD of MS2 coat protein [2]: 0.0125 µM; apparent KD of MS2 coat protein [4]: 0.026 µM
UUUUAAUAUGAAGGAUAUACUUAACAUGAGGAUCACCCAUGUGGUGUUGUGAGUGAGUGAGUUUAGUAGAAGGUCAAGUAUUUU [JMF's solution 47] (Eterna round: R96, puzzle: Exclusion NG 2) | 0.703 µM | 0.428 µM | 0.559 µM | – | –
UUUUAAUAUGAAGGAUAUACUUAACAUGAGGAUCACCCAUGUGGUGUUGUGAGUGAGUGAGUUUAGUAGAAGGUCAAUUCUUUU [JMF's solution 89] (Eterna round: R96, puzzle: Exclusion NG 2) | 0.563 µM | 0.366 µM | 0.442 µM | – | –

Sequence | apparent KD of MS2 coat protein (input ligand: FMN 200 uM) | apparent KD of MS2 coat protein (input ligand: none) | apparent KD of MS2 coat protein [1] | apparent KD of MS2 coat protein [3] | other results
UUUUACAUGCUGAGAUCCUACAUGAGGAUCACCCAUGUGGUCCGGUGACUUUUGUCACCGGACUUAGCUCGUCUUGU [salish99_S_TOV1_R5_100] (Eterna round: R97, puzzle: Sensor, turn-off variant 1) | 0.191 µM | 0.288 µM | – | – | –
UUUUACGGAGGAUAUACAUUUUUUUUAUUAUCCUCAUUAUUACAUGAGGAUCACCCAUGUAGAAGGCCGAUUUU [My Design] (puzzle: Exclusion 2) | – | – | – | 0.0591 µM | –
UUUUACUGAGGAUAUACAUUUUUUUAUUUAUUUAUAAUAUUACAUGAGGAUCACCCAUGUAGAAGGCAGAUUUU [My Design] (puzzle: Exclusion 2) | – | – | – | 0.0267 µM | –
UUUUAGAGAGGAUAUAUAAUGUGAAACAUGAGGAUCACCCAUGUAAUAUUAUGGAUGUAAAUAGAAGGCUCAUUUA [JL-ex5-3.04] (puzzle: Exclusion 5) | – | – | – | 0.0361 µM | apparent KD of MS2 coat protein [2]: 0.0319 µM; apparent KD of MS2 coat protein [4]: 0.0351 µM
UUUUAGCAAGCUAUUAUUAACAUGAGGAUCACCCAUGUGCAUCCAAAAUUACUUUUAGAUCUUGCUCGUCUUAUAUA [JR_STOV1_v2_Sub084] (Eterna round: R97, puzzle: Sensor, turn-off variant 1) | 1.26 µM | 1.6 µM | – | – | –
UUUUAGCGAGGAUAUACAUUUUUUUUAUUAUCCUCAUUAUUACAUGAGGAUCACCCAUGUAGAAGGCGCAUUUU [My Design] (puzzle: Exclusion 2) | – | – | – | 0.0489 µM | –
UUUUAGGGAGGAUAUACAUUUUUUUUAUUAUCCUCAUUAUUACAUGAGGAUCACCCAUGUAGAAGGCCCAUUUU [My Design] (puzzle: Exclusion 2) | – | – | – | 0.084 µM | –
UUUUAGUAAGGAUAUGAUUAGAUCUACUUCGGUAGAUCUAAUCAGAAGGUACAUGAGGAUCACCCAUGUAGAUU [Mod of Brourd 2 - Jieux - Exclusion 4] (Eterna round: R97, puzzle: Exclusion 4) | 0.0241 µM | 0.0188 µM | – | – | –
UUUUAUUGCAAGGAUAUGCAAUUUAUUAUUUAUGCAGAAGGUGCUACAUGAGGAUCACCCAUGUUUCUGGGUUU [JR_E6_Sub044] (puzzle: Exclusion 6) | – | – | – | 0.0918 µM | apparent KD of MS2 coat protein [2]: 0.253 µM; apparent KD of MS2 coat protein [4]: 0.0867 µM
UUUUCUCACGUCAGGAUAUGCUAAAAGGUGACAAGGUAGAAGGGACAUGAGGAUCACCCAUGUGCUUUCAUGAG [Eternabot (L2) Solution 41] (Eterna round: R97, puzzle: Brourd's mod of Exclusion 4) | 0.0152 µM | 0.0138 µM | – | – | –
UUUUGAAAGUGAGGAUAUGACAUGAGGAUCACCCAUGUAAAGGGAGUUGAAUAUAUAGAAAGAUAUCAGAAGGCACAAAUGUUU [JR_ExcNG2_Sub001] (Eterna round: R96, puzzle: Exclusion NG 2) | – | – | 0.115 µM | – | –
UUUUGAUAUGAAGGAUAUACUUAACAUGAGGAUCACCCAUGUGGUGUUGUGAGUGAGUGAGUUUAGUAGAAGGUCAAUUAUUUU [JMF's solution 26] (Eterna round: R96, puzzle: Exclusion NG 2) | 0.47 µM | 0.303 µM | 0.293 µM | – | –
UUUUGGCAUGUAGGAUAUGGGUCCGAUUAGGAUUUAGAAGGACAUGAGGAUCACCCAUGUGCAUUUAAUUGGUCUUUAUUUUUU [EXclNG1-LROPPY14] (Eterna round: R96, puzzle: Exclusion NG 1) | – | – | 0.0623 µM | – | –
UUUUGGCAUGUAGGAUAUGGGUCCGAUUAGGAUUUAGAAGGACAUGAGGAUCACCCAUGUGCCCUUAAUUGGUCUUUUUUUUUU [EXclNG1-LROPPY17] (Eterna round: R96, puzzle: Exclusion NG 1) | 0.0558 µM | 0.0444 µM | 0.0353 µM | – | –
UUUUGGUAAGGAUAUGAAUCGAUCUCGGAAACGAGAUCGAUUCAGAAGGUACAUGAGGAUCACCCAUGUUGAUU [Mod of Brourd 7 - Jieux - Exclusion 4] (Eterna round: R97, puzzle: Exclusion 4) | 0.119 µM | 0.026 µM | – | – | –
UUUUUAAAUGAAGGAUAUACUUAACAUGAGGAUCACCCAUGUGGUGUUGUGAGUGAGUGAGUUUAGUAGAAGGUCAAGUAUUUU [JMF's solution 44] (Eterna round: R96, puzzle: Exclusion NG 2) | 0.814 µM | 0.392 µM | 0.339 µM | – | –
UUUUUACAUGAAGGAUAUACUUAACAUGAGGAUCACCCAUGUGGUGUUGUGAGUGAGUGAGUUUAGUAGAAGGUCAAUUAUUUU [JMF's solution 22] (Eterna round: R96, puzzle: Exclusion NG 2) | 0.556 µM | 0.314 µM | 0.241 µM | – | –
